Results: US12083109B2, “Neurokinin antagonists and uses thereof” (California Institute of Technology, priority 2017, dated 2024)
Entries after “also recorded” stand apart in the source; their conditions may differ.

B1: shRNA-1: small hairpin RNA for mouse Tac2 gene (SEQ ID NO: 9, 10), expressed from AAV5-H1-shRNA-CMV-zsGreen (nucleic acid)
chain 1: CCGACGTGGTTGAAGAGAACACCGCTTCCTGTCACGGTGTTCTCTTCAACCACGTCTTTTTT
chain 2: AAAAAAGACGTGGTTGAAGAGAACACCGTGACAGGAAGCGGTGTTCTCTTCAACCACGTCGG
B2: shRNA-2: small hairpin RNA for mouse Tac2 gene (SEQ ID NO: 11, 12), expressed from AAV5-H1-shRNA-CMV-zsGreen (nucleic acid)
chain 1: CCGCCTCAACCCCATAGCAATTAGCTTCCTGTCACTAATTGCTATGGGGTTGAGGCTTTTTT
chain 2: AAAAAAGCCTCAACCCCATAGCAATTAGTGACAGGAAGCTAATTGCTATGGGGTTGAGGCGG

System: Tac2 mRNA
Experiment: Tac2 mRNA knockdown by FISH and qRT-PCR in brain of shRNA mice
Assay type: in vivo, mouse
Conditions: for knockdown of Tac2 mRNA (efficacy of shRNA): FISH and qRT-PCR; for Tac2 mRNA in CeA / Tac2 mRNA in DMH / Tac2 mRNA in dBNSTa: FISH fluorescence / qRT-PCR vs luciferase shRNA control
Method: Fluorescent in situ hybridization (FISH) was carried out according to the protocol described in (Thompson et al., 2008; incorporated by reference in its entirety) with modifications. Briefly, mice were transcardially perfused with 1×PBS followed by 4% paraformaldehyde/PBS (PFA) in 1×PBS. Brains were fixed in 4% PFA for 3-4 hours at 4° C., and cryoprotected overnight in 15% sucrose at 4° C. Brains were embedded in OCT Compound (Fisher Scientific) and cryosectioned at 30 μm thickness and mounted on Superfrost Plus slides (Fisher Scientific). Sections were fixed in 4% PFA for 30 minutes, acetylated with 0.25% acetic anhydride in 0.1 M triethanolamine for 10 minutes, dehydrated with increasing concentrations of EtOH (50, 70, 95 and 100%), gently treated with proteinase K ([…] in 0.01M Tris-HCl pH 7.4 and 0.001M EDTA) for 10 minutes, and fixed in 4% PFA for 20 minutes. All procedures were performed at room temperature (RT). The hybridization buffer contained 50% deionized formamide, 3× standard saline citrate (SSC), 0.12 M PB (pH 7.4), 10% dextran sulfate, 0.12 mg/ml yeast tRNA, 0.1 mg/mL calf thymus DNA, and 1× Dehardt solution. The sections were prehybridized at 63° C. in hybridization buffer for 30 minutes and then hybridized with the digoxigenin-labeled Tac2 RNA probe (300 ng/ml) in hybridization buffer at 63° C. for 16 hours. After hybridization, the sections were washed with 5×SSC for 10 minutes, 4×SSC/50% formamide for 20 minutes, 2×SSC/50% formamide for 30 minutes, and 0.1×SSC for 20 minutes twice each at 61° C. The sections were blocked with 4% sheep serum in TNT buffer (Tris-HCl pH7.5, 0.15 M NaCl and 0.00075% Tween 20) for 30 minutes and TNB Blocking buffer (TSA blocking reagent, PerkinElmer, Waltham, MA) for 30 minutes at RT. The sections were incubated overnight at RT with anti-digoxigenin-POD antibody (1:600, Roche Diagnostics) in TNB buffer. The sections were washed with TNT buffer and tyramide-biotin signal amplification was performed using the TSA Plus Biotin Kit (PerkinElmer). Signals were visualized after 1 hour incubation with Alexa Fluor 594 Streptavidin (Jackson ImmunoResearch) or Alexa Fluor 488 Streptavidin (Invitrogen) at RT. Sections were counterstained with DAPI ([…] in PBS), washed with 1×PBS, and coverslipped using Fluoro-Gel with Tris Buffer (Electron Microscopy Sciences). Tissue images of entire coronal brain sections were taken using an Olympus VS120-S6-W slide-scanner and cells positive for the probe were counted. Cell Counting
Following confocal or slide-scanner imaging, quantification of labeled cells was performed using ImageJ and Metamorph. Cells were counted by an observer blind to experimental conditions. Brain images were converted to greyscale (16-bit) in ImageJ and adjusted using automatic thresholding and watershed separation. Cells were either counted automatically using ImageJ's particle analysis algorithm (random sections were counted manually to cross-check that automated scoring was consistent with manual human scoring); otherwise, cells were counted manually using MetaMorph. Cells that were not entirely contained within a given region of interest (ROI) were excluded from analyses. Relative fluorescent intensities were measured automatically using MetaMorph for a given ROI. Raw cell counts within an ROI were divided by the size of the ROI (mm^2) to produce the number of positively labeled cells/mm^2.
Group housed or isolated (30 minutes, 24 hours, 2 weeks) mice were decapitated and brains were quickly removed and placed in RNA Later (Qiagen) at 4° C. Tissue from dBNSTa, DMH, CeA, ACC, and dHPC was microdissected and placed in RNA Later. Tissue was then homogenized and RNA purified using an RNAeasy Plus Mini Kit (Qiagen). 150ng of total RNA/region/condition was then incubated with 3 μl of Turbo DNase, 1 μl of Murine RNase Inhibitor in 1× Turbo DNase buffer for 15 minutes at 37° C. to remove any contaminating genomic DNA. […]

| Molecule | knockdown of Tac2 mRNA (efficacy of shRNA) | Tac2 mRNA in CeA | Tac2 mRNA in DMH | Tac2 mRNA in dBNSTa |
| --- | --- | --- | --- | --- |
| B1 | proved effective | appeared reduced | reduced | reduced |
| B2 | proved effective; also recorded: strongest reductions; also recorded: stronger knockdown | appeared reduced | reduced | reduced |
